Series [1] deals with recombinant complete cytoplasmic portion of MaeK (MaeKC) (Lactobacillus casei). As to the kind of experiment: SEC; gel filtration chromatography of MaeKC (Superdex200 16/60); single peak.
Series [2] has as its system T1, MaeR D54A D54A (Lacticaseibacillus (Lactobacillus) casei BL23), ORF:6e0afda8.
T1 sequence: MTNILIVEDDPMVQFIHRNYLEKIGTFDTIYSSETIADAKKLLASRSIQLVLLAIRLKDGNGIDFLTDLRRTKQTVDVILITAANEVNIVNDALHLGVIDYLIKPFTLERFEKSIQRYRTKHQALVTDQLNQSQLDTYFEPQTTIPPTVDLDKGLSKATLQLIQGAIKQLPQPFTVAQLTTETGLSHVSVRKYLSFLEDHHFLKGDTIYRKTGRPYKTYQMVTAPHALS
As to the kind of experiment: EMSA. The conditions noted are these: EMSA: 15 ul of 2.5 mM Tris-HCl pH 7.5, 100 mM NaCl, 25 mM MgCl2, 0.25 mM EDTA, 0.25 mM DTT, 10% glycerol, 1.5 ug salmon sperm DNA, 100 ng DNA, 62-375 ng ….

For series [3], the system named is T2, MaeR D54N D54N (Lacticaseibacillus (Lactobacillus) casei BL23), ORF:6e0afda8.
T2 sequence: T1 sequence with A54N
As to the kind of experiment: EMSA. The conditions noted are these: EMSA: 15 ul of 2.5 mM Tris-HCl pH 7.5, 100 mM NaCl, 25 mM MgCl2, 0.25 mM EDTA, 0.25 mM DTT, 10% glycerol, 1.5 ug salmon sperm DNA, 100 ng DNA, 62-375 ng …. On the technique in general: Mobility shift assays separate free from complexed probe on a gel.

Series [4] has as its system T3, MaeR full length (MaeRFL) (Lacticaseibacillus (Lactobacillus) casei BL23), ORF:6e0afda8.
T3 sequence: T1 sequence with A54D
As to the kind of experiment: EMSA. The conditions noted are these: EMSA: 15 ul of 2.5 mM Tris-HCl pH 7.5, 100 mM NaCl, 25 mM MgCl2, 0.25 mM EDTA, 0.25 mM DTT, 10% glycerol, 1.5 ug salmon sperm DNA, 100 ng DNA, 62-375 ng ….

Positions count from the first letter of the chain named.

This passage reports stoichiometry N and binding results from PMC5457438.

Regarding “recombinant complete cytoplasmic portion of MaeK (MaeKC) (domain or fragment)”, in series [1], the stoichiometry N (usually the number of molecules, sites or subunits per partner or assembly) amounted to 2.

For “CGTTGATTTGTTGGGTGTAACCGTCTTGTTCTCCATGTTTCCTTACCCCCAATCTTTTGTTACTTACAGCATATTGTAAGCGCTTCATCAGGGGAAGATTATTTAACTTATTAAACCATAAACCCATTTATTTAAGCGATTGTTTTACTATTCACAAGATGGTTTCTCTACTGAACAGGAGTATGATCATGAAAATAAAAGGATGGCGGCTATGGGGCT (double strand) [mae promoter (maeP-maeK intergenic region, 219 bp)]”, the figures for the binding entry in series [2], in series [3] and in series [4] were “no binding”, “binds” and “binds”, respectively.
